Experimental findings from the supplement of paper PMC9170038 are described below.

For this data set, the system named is K4 kissing-loop RNA reporter. Description: apparent KD of K4 kissing-loop reporter; higher = weaker reporter binding. The following applies: Eterna round: R107. On the procedure:
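RNA-MaP round R107: designed RNA switches with theophylline, tryptophan, arginine or FMN aptamers are transcribed on-chip within common flanks. They are titrated with a labelled K4 kissing-loop RNA reporter in RNA-MaP buffer (100 mM Tris pH 7.5, 80 mM KCl, 4 mM MgCl2), without ligand or with the indicated ligand. Median apparent KD per design.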

Where [1] appears, read: input ligand: theophylline 20 uM.
The mark [2] stands for this setting: input ligand: tryptophan 2.4 mM.
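Note: bound reporter read as fluorescence of individual clusters on recovered sequencing chips by microscopy, with normalized cluster intensities fitted with a binding model.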

On to “CACUCGGUAUCAGAUACCAGACUAACGAUACCGAGUGUAUCGGGUAGUGAUGUUACCAUAGUCCCUUGGCAGCUGAUAUUCCCUA [Theo B SS t9a]”, for which the “apparent KD of K4 kissing-loop reporter” value is, setting by setting: (input ligand: FMN 200 uM) 0.252 µM; (input ligand: arginine 13.2 mM) 0.203 µM; (input ligand: none) 0.258 µM; under setting [1], 0.21 µM; under setting [2], 0.199 µM.
The like results for “CAUACGAAGCAGUGAUGUUGCUUAUGAGAAGGAGCGCACGAAAGUGCAGGUAGGUCGCUCAGCCAUGUGGACGAAAACGUCCACA [whbob_SS_Arginine_A_sa112]” were, in that order, 0.266 µM, 0.273 µM, 0.276 µM, 0.265 µM and 0.269 µM.
The like results for “CAUACGCAUGGAGGAUAUGAGAUUACUCAUAUUACCCUGUAACAGGUAUCUCAGUGAUGUUGAGACUCAGAAGGCCAUGUGUAUG [Ex FMN B 22]” were, in that order, 0.713 µM, 0.354 µM, 0.415 µM, 0.435 µM and 0.387 µM.
As to “CAUACGCAUGGAGGAUAUGAGAUUUCUCAUAUUAUUUAAUAUUCUCAGUGAUGUUGAGAAAUAAACUCAGAAGGCCAUGUGUAUG [Ex FMN B 3]”, the “apparent KD of K4 kissing-loop reporter” value (input ligand: FMN 200 uM) is 0.256 µM; the “apparent KD of K4 kissing-loop reporter” value (input ligand: arginine 13.2 mM) came out at 0.365 µM; the “apparent KD of K4 kissing-loop reporter” value (input ligand: none) came to 0.313 µM; the “apparent KD of K4 kissing-loop reporter” value under setting [1] was 0.405 µM; the “apparent KD of K4 kissing-loop reporter” value under setting [2] stood at 0.304 µM.
As for “CAUGGAGUGAUGCUCCAUGGUCGGGCUUGGCAGGAUAUGGGAUCUUCCAGAAGGGCCGAUCCCGGCGAGUGAUGUUCGCUGGUCU [Exclusion FMN A GF 28]”, the “apparent KD of K4 kissing-loop reporter” value by setting is: (input ligand: FMN 200 uM) 0.167 µM; (input ligand: arginine 13.2 mM) 0.332 µM; (input ligand: none) 0.316 µM; under setting [1], 0.433 µM; under setting [2], 0.271 µM.
The like results for “CAUUCGAAAUGCAGUGAUGUUGCAACCGAUACCAGUAUCGAAAGAUACCCUUGGCAGCGGAAAACCGCUACGUAUUUUUUGAAUG [Ex Theophylline A K4 26]” were, in that order, 0.204 µM, 0.288 µM, 0.276 µM, 0.243 µM and 0.237 µM.
On the same counts, the results for “CAUUCGAAAUGCAGUGAUGUUGCAACUGAUACCAGUAUCGAAAGAUACCCUUGGCAGCGGAAAACCGCUACGUUUUUUUUGAAUG [Ex Theophylline A K4 24]” are 0.191 µM, 0.312 µM, 0.312 µM, 0.357 µM and 0.176 µM.
Turning to “CCAACGUGAAAAGGAUAUCGCGAUGUGCACGACUAGUGAUGUUAGGAGAGGCUCGUUGAAUUGUACCGAGAAGGUUUUGAGUGGG [theeternabot_sameState_KL_FMN_B_16]”, the “apparent KD of K4 kissing-loop reporter” value reads like this: (input ligand: FMN 200 uM) 0.227 µM; (input ligand: arginine 13.2 mM) 0.16 µM; (input ligand: none) 0.24 µM; under setting [1], 0.231 µM; under setting [2], 0.196 µM.
The like results for “CCAUCGCUAUUCGAUACCAGUCAAGAGGUCUUUGGCCUCUUAAUGGAGUGAUGUUCCUUAGACCCUUGGCAGCGAAUAGUGAUGG [Theophylline B K4 13]” were, in that order, 0.266 µM, 0.127 µM, 0.237 µM, 0.34 µM and 0.124 µM.
On the same counts, the results for “CCAUCGCUAUUCGAUACCAGUCAUUUUUUAUUUUUUUUUUUUUUUGGAGUGAUGUUCCAAGACCCUUGGCAGCGAAUAGUGAUGG [whbob_SS_Theo_B_th77]” are 0.0913 µM, 0.109 µM, 0.0763 µM, 0.114 µM and 0.0681 µM.
On the same counts, the results for “CCAUUCUUUUACGAUACCAGUUUAAUAUAUUUAAUCAAAACCCUCGCCGAGUGAUGUUCGGACCCUUGGCAGCGUUUGCGAGAGG [bjnbstkmullin]” are 0.455 µM, 0.291 µM, 0.582 µM, 0.533 µM and 0.397 µM.
As for “CCCAAAAUAUGCAGUGAUGUUGCAACCGAUACCAGUAUCGAAAGAUACCCUUGGCAGCGGAAAACCGCAACGUAAUUUAAAAGGG [Ex Theophylline A K4 16]”, the “apparent KD of K4 kissing-loop reporter” value is, setting by setting: (input ligand: FMN 200 uM) 0.204 µM; (input ligand: arginine 13.2 mM) 0.177 µM; (input ligand: none) 0.147 µM; under setting [1], 0.212 µM; under setting [2], 0.147 µM.
With “CCCUCACGAGUGAUGUUCGUAGGGUACAGUCAGGAUAUCAUGCGGUUGAGAAGGGACAGAGAGGGCGGCCACUGGUUGCUCUUCU [Tiatesqu]”, the “apparent KD of K4 kissing-loop reporter” value is 0.15 µM (input ligand: FMN 200 uM); 0.249 µM (input ligand: arginine 13.2 mM); 0.235 µM (input ligand: none); 0.418 µM under setting [1]; 0.2 µM under setting [2].
For “CCCUCACGAGUGAUGUUCGUAGGGUACAGUCAGGAUAUCAUGCGGUUGAGAAGGGACAGAGAGGGCGGCGGCGGGUUGCUCCUCU [Beeded]”, the “apparent KD of K4 kissing-loop reporter” value runs as follows: (input ligand: FMN 200 uM) 0.29 µM; (input ligand: arginine 13.2 mM) 0.24 µM; (input ligand: none) 0.281 µM; under setting [1], 0.711 µM; under setting [2], 0.495 µM.
On the same counts, the results for “CCGAAGAACCAGUGAUGUUGGUUGACUAGACAGGAUAUGAGCAACAUCAGAAGGGUCUGGCUUCGGGAGUGGGUCACGCUGACCU [Iserreanor]” are 0.271 µM, 0.282 µM, 0.426 µM, 0.912 µM and 0.808 µM.
As for “CCGCUGUACUGCAAUAAGUGAUGUUUAUUGCAGGAUAUCUGGAAACAGAGAAGGGCAUGUACUCGACUUAGCCACUACAGCGGUU”, the “apparent KD of K4 kissing-loop reporter” value was found to be 0.144 µM (input ligand: FMN 200 uM); 0.0573 µM (input ligand: arginine 13.2 mM); 0.0611 µM (input ligand: none); 0.0569 µM under setting [1]; 0.0652 µM under setting [2].
